Residue numbers refer to the chain shown, from its start. Like-named read-outs stand apart in the source and are kept apart here.
T1: mouse CD73 (mouse, UniProt Q61503 29-551, limits assumed)
T1 construct: Expressed in F293 cells and used in ELISA
T1 sequence (looked up): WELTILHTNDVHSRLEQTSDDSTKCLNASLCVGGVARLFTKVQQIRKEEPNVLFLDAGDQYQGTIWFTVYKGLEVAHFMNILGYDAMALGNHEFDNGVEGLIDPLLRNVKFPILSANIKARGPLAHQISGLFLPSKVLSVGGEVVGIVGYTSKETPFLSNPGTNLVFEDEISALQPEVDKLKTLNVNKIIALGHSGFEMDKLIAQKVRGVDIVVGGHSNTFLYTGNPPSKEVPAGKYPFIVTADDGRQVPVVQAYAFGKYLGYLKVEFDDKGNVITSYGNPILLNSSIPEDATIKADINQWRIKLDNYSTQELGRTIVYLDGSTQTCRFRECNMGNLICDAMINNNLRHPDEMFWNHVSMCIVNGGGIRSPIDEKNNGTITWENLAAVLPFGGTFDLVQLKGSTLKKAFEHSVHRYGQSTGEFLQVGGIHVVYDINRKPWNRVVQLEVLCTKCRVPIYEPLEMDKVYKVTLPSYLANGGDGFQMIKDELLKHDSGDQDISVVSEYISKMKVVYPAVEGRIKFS

T2: mCD73hF4 (human; mouse, UniProt Q61503 307-551, limits assumed)
T2 construct: Mouse-human domain swapping protein, expressed in F293 cells
T2 sequence: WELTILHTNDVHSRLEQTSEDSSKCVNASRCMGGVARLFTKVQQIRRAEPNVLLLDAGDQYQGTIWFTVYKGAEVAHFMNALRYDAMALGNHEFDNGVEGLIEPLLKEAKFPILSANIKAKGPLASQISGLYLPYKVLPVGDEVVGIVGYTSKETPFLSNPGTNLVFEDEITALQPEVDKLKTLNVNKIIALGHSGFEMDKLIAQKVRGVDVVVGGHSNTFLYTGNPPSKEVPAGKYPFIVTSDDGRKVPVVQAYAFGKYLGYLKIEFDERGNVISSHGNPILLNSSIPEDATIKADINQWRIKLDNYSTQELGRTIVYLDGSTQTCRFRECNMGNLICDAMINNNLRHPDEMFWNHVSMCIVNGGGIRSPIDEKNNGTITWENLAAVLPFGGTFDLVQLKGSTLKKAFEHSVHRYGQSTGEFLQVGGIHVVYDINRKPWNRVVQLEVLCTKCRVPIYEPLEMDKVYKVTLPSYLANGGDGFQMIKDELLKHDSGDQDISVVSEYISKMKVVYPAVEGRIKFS

T3: human CD73 (human, UniProt P21589 27-549)
T3 construct: the antigen of the Biacore assay is only called human CD73 antigen; also called human CD73 antigen; Recombinant Human CD73-6xHis
T3 sequence: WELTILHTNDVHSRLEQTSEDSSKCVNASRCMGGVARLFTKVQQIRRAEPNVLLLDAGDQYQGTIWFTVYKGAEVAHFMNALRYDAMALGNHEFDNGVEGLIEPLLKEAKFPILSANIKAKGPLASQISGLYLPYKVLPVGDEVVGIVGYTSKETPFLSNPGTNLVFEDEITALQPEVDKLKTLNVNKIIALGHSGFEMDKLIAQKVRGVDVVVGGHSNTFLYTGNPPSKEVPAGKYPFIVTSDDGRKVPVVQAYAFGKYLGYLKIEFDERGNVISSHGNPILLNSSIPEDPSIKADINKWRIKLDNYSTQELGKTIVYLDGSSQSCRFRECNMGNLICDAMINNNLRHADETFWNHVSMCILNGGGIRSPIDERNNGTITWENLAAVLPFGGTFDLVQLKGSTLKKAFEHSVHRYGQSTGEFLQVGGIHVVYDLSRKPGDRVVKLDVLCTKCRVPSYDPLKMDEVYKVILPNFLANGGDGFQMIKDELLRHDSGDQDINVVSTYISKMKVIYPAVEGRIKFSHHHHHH

T4: human CD73 on cells (MDA-MB-231, Calu-1, KLM-1, human CD4+ T-cells) (human, UniProt P21589 27-549)
T4 sequence: T3 sequence

B1: 10H5-CDRH1N35A (antibody, V domains shown)
VH: QVKLQQSGAELVKPGASVKISCKASGYVFSSYWIAWVKQRPGKGLEWIGQIYPGDGNTNYNRNFKGKATLTADKSSSTAYMQLSSLTSEDSAVYFCAGFADWGQGTTVTVSS
VL: DIELTQSPSSLSASLGERVSLTCRASQDIGDSLIWLQQEPDGTIKRLIYATSSLDSGVPKRFSGSRSGTSYSLTISSVEAEDAATYYCQQYSGYPLTFGSGTKLEIK
notes: Alanine mutant of 10H5; printed '10H5-CDRHIN35A'; also called 10H5-CDRHIN35A
B2: 10H5-CDRH3F95A (antibody, V domains shown)
VH: B1 VH with A35N, F99A
VL: B1 VL
notes: Alanine mutant of 10H5
B3: 10H5-CDRH1W33A (antibody, V domains shown)
VH: B1 VH with W33A, A35N
VL: B1 VL
notes: Alanine mutant of 10H5
B4: 10H5-CDRL3Y91A (antibody, V domains shown)
VH: B1 VH with A35N
VL: B1 VL with Y91A
notes: Alanine mutant of 10H5
B5: Oleclumab (antibody, V domains shown)
VH: EVQLLESGGGLVQPGGSLRLSCAASGFTFSSYAYSWVRQAPGKGLEWVSAISGSGGRTYYADSVKGRFTISRDNSKNTLYLQMNSLRAEDTAVYYCARLGYGRVDEWGRGTLVTVSS
VL: QSVLTQPPSASGTPGQRVTISCSGSLSNIGRNPVNWYQQLPGTAPKLLIYLDNLRLSGVPDRFSGSKSGTSASLAISGLQSEDEADYYCATWDDSHPGWTFGGGTKLTVL
B6: HuB10/HdB7 (antibody, V domains shown)
VH: QVQLVQSGAEVKKPGASVKVSCKASGYVFSSYWINWVRQAPGQGLEWMGQIYPGDGNTNYNRNFKGRVTLTADKSTSTAYMELSSLRSEDTAVYYCAGFADWGQGTLVTVSS
VL: DIQLTQSPSSLSASVGDRVTITCRASQDIGDSLIWLQQKPGKAPKRLIYATSSLDSGVPSRFSGSRSGTDYTLTISSLQPEDFATYYCQQYSGYPLTFGQGTKVEIK
notes: Humanized 10H5; also called HuVHB10/HdVLB7; humanized 10H5 derivative
B7: HuB10/HdB6 (antibody, V domains shown)
VH: B6 VH
VL: B6 VL with P44I, L78V
notes: Humanized 10H5; also called HuVHB10/HdVLB6; humanized 10H5 derivative
B8: HuB9/HdB7 (antibody, V domains shown)
VH: B6 VH with V68A, Y95F
VL: B6 VL
notes: Humanized 10H5; also called HuVHB9/HdVLB7; humanized 10H5 derivative

Experiments:
mCD73hF1 (mouse; human) [1] = target: mCD73hF1 (mouse; human) (UniProt Q61503); experiment: ELISA, antibody titrated; panel mCD73 hF1
mCD73hF2 (mouse; human) = mCD73hF2 (mouse; human) (UniProt Q61503); experiment: ELISA, antibody titrated; panel mCD73 hF2
mCD73hF3 (mouse; human) = mCD73hF3 (mouse; human) (UniProt Q61503); experiment: ELISA, antibody titrated; panel mCD73 hF3
mCD73hF1 (mouse; human) [2] = target: mCD73hF1 (mouse; human) (UniProt Q61503); experiment: ELISA, antibody titrated; right panel mCD73 hF1
mouse CD73 [3] = target: T1, mouse CD73; experiment: ELISA, antibody titrated; left panel mCD73
Text: The binding affinities of the above four mutated antibodies, 10H5 antibody, Oleclumab, and IgG to mouse CD73 and mouse CD73 hF1 were respectively analyzed by using ELISA assay.

[4] = target: human CD73 on cells (MDA-MB-231, Calu-1, KLM-1, human CD4+ T-cells) (human) (UniProt P21589); experiment: cell-based or functional assay
mouse CD73 [5] = target: T1, mouse CD73; experiment: ELISA, antibody titrated; panel mCD73
mCD73hF4 = target: T2, mCD73hF4; experiment: ELISA, antibody titrated; panel mCD73 hF4
human CD73 [6] = target: T3, human CD73; experiment: Biacore SPR
[7] = target: T4, human CD73 on cells (MDA-MB-231, …); experiment: cell-based or functional assay
human CD73 [8] = target: T3, human CD73; experiment: Biacore SPR; remark: listed apart in the source
human CD73 [9] = target: T3, human CD73; experiment: Biacore SPR; remark: listed apart in the source
human CD73 [10] = target: T3, human CD73; experiment: Biacore SPR; remark: listed apart in the source

Molecule | binding result (mouse CD73 [3]) | Kd (human CD73 [6]) [nM] | AMP concentration in supernatant by LC/MS, MDA-MB-231 cells, 400 µM AMP, 10 nM antibody, 6 hours [7] [µM] | AMP concentration in supernatant by LC/MS, MDA-MB-231 cells, 400 µM AMP, 10 nM antibody, 24 hours [7] [µM] | AMP consumption, Calu-1 cells, 10 nM antibody, 24 hrs [7] [%] | AMP consumption, MDA-MB-231 cells, 10 nM antibody, 6 hr [7] [%] | AMP consumption, MDA-MB-231 cells, 10 nM antibody, 24 h [7] [%] | CFSE left-shift level of CD3/CD28-activated CD4+ T-cells with 400 µM AMP, 10 nM antibody [7] [%] | further results
Oleclumab (antibody) |  |  |  |  |  |  |  |  | EC50 (read off the curve) (mCD73hF1 (mouse; human) [1]): 0.1 nM; EC50 (read off the curve) (mCD73hF2 (mouse; human)): 0.1 nM; EC50 (read off the curve) (mCD73hF3 (mouse; human)): 0.1 nM; EC50 (read off the curve) (mCD73hF1 (mouse; human) [2]): 0.1 nM
B1 | no binding (tested: about 5e-8 M) |  |  |  |  |  |  |  | 
B2 | no binding (tested: about 5e-8 M) |  |  |  |  |  |  |  | 
B3 | no binding (tested: about 5e-8 M) |  |  |  |  |  |  |  | 
B4 | no binding (tested: about 5e-8 M) |  |  |  |  |  |  |  | 
B5 |  |  |  |  |  |  |  |  | AMP concentration in supernatant by LC/MS, MDA-MB-231 cells, 400 µM AMP, 10 nM antibody, 6 hours [4]: 324 µM; AMP concentration in supernatant by LC/MS, MDA-MB-231 cells, 400 µM AMP, 10 nM antibody, 24 hours [4]: 147 µM; AMP consumption, Calu-1 cells, 10 nM antibody, 24 hrs [4]: > 90%; AMP consumption, MDA-MB-231 cells, 10 nM antibody, 6 hr [4]: < 20%; AMP consumption, MDA-MB-231 cells, 10 nM antibody, 24 h [4]: > 90%; CFSE left-shift level of CD3/CD28-activated CD4+ T-cells with 400 µM AMP, 10 nM antibody, 3 days [4]: 72.9%; EC50 (read off the curve) (mouse CD73 [5]): ~0.1 nM; EC50 (read off the curve) (mCD73hF4): ~0.1 nM; EC50 (read off the curve) (mouse CD73 [3]): ~0.1 nM
B6 |  | 0.678 | 331 | 287 | < 20 | < 10 | < 50 | 83.4 | koff (human CD73 [8]): 6.54e-05 s⁻¹; kon (human CD73 [8]): 96400 M⁻¹ s⁻¹
B7 |  | 0.803 | 336 | 286 | < 20 | < 10 | < 50 | 83.7 | koff (human CD73 [9]): 6.57e-05 s⁻¹; kon (human CD73 [9]): 81800 M⁻¹ s⁻¹
B8 |  | 0.623 | 345 | 298 | < 20 | < 10 | < 50 | 83.5 | koff (human CD73 [10]): 6.36e-05 s⁻¹; kon (human CD73 [10]): 102000 M⁻¹ s⁻¹

From patent US20250136709A1 (DEVELOPMENT CENTER FOR BIOTECHNOLOGY, published 2025)
